Measurements: the supplement of paper PMC9170038

Tested on: K4 kissing-loop RNA reporter
Test: apparent KD of K4 kissing-loop reporter; higher = weaker reporter binding
Conditions: Eterna round: R107
Protocol: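 RNA-MaP round R107: designed RNA switches with theophylline, tryptophan, arginine or FMN aptamers are transcribed on-chip within common flanks. They are titrated with a labelled K4 kissing-loop RNA reporter in RNA-MaP buffer (100 mM Tris pH 7.5, 80 mM KCl, 4 mM MgCl2), without ligand or with the indicated ligand. Median apparent KD per design.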

[1] = input ligand: theophylline 20 uM
[2] = input ligand: tryptophan 2.4 mM
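Note: bound reporter read as fluorescence of individual clusters on recovered sequencing chips by microscopy, with normalized cluster intensities fitted with a binding model.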

Sequence | apparent KD of K4 kissing-loop reporter (input ligand: FMN 200 uM) | apparent KD of K4 kissing-loop reporter (input ligand: arginine 13.2 mM) | apparent KD of K4 kissing-loop reporter (input ligand: none) | apparent KD of K4 kissing-loop reporter [1] | apparent KD of K4 kissing-loop reporter [2]
CGUCGGUAGUGAUGUUGCCACGACGCUUUUAAGGAUAUAAGCUAAGUUAGAAGGUAAGAGAGUCAGCCCGGUGGCCUUAGAGUAG [theeternabot_exclusion_KL_FMN_A_17] | 257 nM | 186 nM | 195 nM | 162 nM | 151 nM
CGUGCCCAGCCGGAUACCAGUGACCCGCUGGGAACCGCGGGCCCAGAGUGAUGUUCGGGACACCCUUGGCAGCCGCCUGGGCGGC [#2 Same State - Theophylline B Attempt #12 (HarryS)] | 1380 nM | 724 nM | 462 nM | 440 nM | 1250 nM
CUAGCCGGGAAAGGAUAUACACACGCACAUAACGAGUGAUGUUCGUUAAUACCAACUUGGUUAACUGUAGAAGGUUCAUCGUCAC [theeternabot_sameState_KL_FMN_B_36] | 579 nM | 576 nM | 803 nM | 793 nM | 517 nM
CUAUGGAAACAUAGUGAGCGGGAAACCGAUACCAGUAUGGAAACAUACCCUUGGCAGCGGAAUGCUCAAACGGAGUGAUGUUCCG [Theophylline A K4 22] | 265 nM | 216 nM | 270 nM | 235 nM | 240 nM
CUGGGUUGACGAAAAGUCAACAAAUGAGAAGGAGCGCACGAAAGUGCAGGUAGGUCGCUCAAUCCAGUGAUGUUGGAUCAUCCAG [#SwitchBubble 12 #K4Late] | 571 nM | 601 nM | 649 nM | 638 nM | 472 nM
CUGUACAUCUCGGCCGCCACUGACAUGAGUGAUGUUCAUGUACAUGAGUGAUGUUCAUGUUCGGCCAGGACCGGGAGGUGUGCAG [KL-SSTryp-B2 #analogue #double KL] | 352 nM | 184 nM | 274 nM | 271 nM | 216 nM
CUUGAUGUGUCGGCCGCCACUGGUAUAGGCGGACUAUAACGACAUGAGUGAUGUUCAUGUUCGUCUAGGACCGGGACACAUUGUA [Tryp B SS t4] | 112 nM | 97.4 nM | 104 nM | 100 nM | 111 nM
GAAUUAUGUAGAAGGAGCGUUAGAAGGUAUAGGUGCGAGUGAUGUUUGGAUUUGUUAAUUUGACAGGUAGGUCGCUACAGAAGGA [KL-SSArg B18 #analogue] | 946 nM | 259 nM | 567 nM | 205 nM | 306 nM
GAAUUGACGAGUGAUGUUCGUCCACAAUACCGAGGACCGGUACGGCCGCCACUCGAGCAAUGUGAAUAGGGUCGCGUUUUGCAGU | 294 nM | 266 nM | 295 nM | 352 nM | 187 nM
GACGGGUUGCUGCUCAAUCCGUCGCAUGAUCGAGGACCGGUACGGCCGCCACUCGAGGCCAUGCCGUACGAGUGAUGUUCGUGCG [Xeerlaus] | 387 nM | 327 nM | 324 nM | 388 nM | 190 nM
GACUGGAGUGAUGUUCCAUUAACGAUCCUACGAGGACCGGUACGGCCGCCACUCGAAAUGCAGUGAUGUUGCAGCCAGCCGUACU [Exclusion Trptophan A GF 8] | 157 nM | 180 nM | 162 nM | 192 nM | 142 nM
GAGAGCCCUGGAGGAUAUGAGUCUAGUGAUGUUAGGCGGUCCAUGCGCGUGGCGCGUUAUGCCCUUUUAGAAGGCCAGGGCUCUC [#2 Exclusion - FMN B Attempt #18 (HarryS)] | 109 nM | 68.5 nM | 88.5 nM | 85.2 nM | 89.7 nM
GAGAUAGAGGCGGCCGCCACUAGUGAUGUUAGUGAUGUUAGAUAGAGAAUAUAACAGGGAUUAGAUAGGACCGGGCCAGAUGGAG ['lljullin] | 116 nM | 104 nM | 130 nM | 103 nM | 100 nM
GAGCGGUAGAGGCUACCGCUAUUCUGAGAAGGAGCGCAGAUGACUGCAGGUAGGUCGCUUAGAGCUUGCAGUGAUGUUGCAAGUU [Inzarier] | 178 nM | 176 nM | 191 nM | 181 nM | 181 nM
GAGGGCCCUGUAGGAUAUGAGUCUAGUGAUGUUAGGCGGUCCAUGCGCGUGGCGCGUUAUGCCCUUUUAGAAGGACAGGGCUCUC [#2 Exclusion - FMN B Attempt #21 (HarryS)] | 109 nM | 63 nM | 82.4 nM | 83.3 nM | 84.7 nM
GAUAGGAAACUAUCAAAUCGGGAAACCGAUACCAGUAUGGAUUCAUACCCUUGGCAGCGGGAUUAUAAAAUAGGAGUGAUGUUCC [Theophylline A K4 16] | 219 nM | 213 nM | 220 nM | 241 nM | 189 nM
GAUGAUCGCGCGGCCGCCACUGGUCAGUGAUGUUGACAUUAAUGCGCCGAGUAGUAACGGCGCAGUAGGACCGGGCGCGAUGUAG [#13 K4 Tryptophan B Same State] | 151 nM | 139 nM | 139 nM | 198 nM | 110 nM
GAUGGUCGAGAAGGAUAUGUGACUACCAGAAGGAAAUUCAGUGAUGUUGAUUGUCGCGAGCAGGAGACAGAAGGUCUCAGACAUA [theeternabot_exclusion_KL_FMN_B_5] | 506 nM | 265 nM | 330 nM | 351 nM | 276 nM
GAUUAAUAAGAGGAUACCAGUACUAAUAAAGUACAUUAAUAGUAGAGUGAUGUUCUAAAGUACCCUUGGCAGCUUAGAGUAAGUU [#08 K4 Theophylline B Exclusion] | 128 nM | 224 nM | 157 nM | 226 nM | 97.5 nM
GAUUACAACAGAGUGAUGUUCUGACUUUCUCGAGGACCGGUACGGCCGCCACUCGUUAAACAAAGUGGUUUGCCAAGGCCAACUU | 139 nM | 198 nM | 157 nM | 208 nM | 111 nM
GAUUCAGUGAUGUUGGAAGGCGAGCGGGAUACCAGCCGAGACUCAGGCCCUUGGCAGCCCACAUAUCCCAGGUAGAUAGUAGAUC [Same State - Theophylline A (Freestyle 8)] | 193 nM | 106 nM | 129 nM | 166 nM | 135 nM
GAUUCUAGCGAAAGUGAUGUUUUCGAGGAUACCAGUGCCACUUGACACCCUUGGCAGCCUACCCGUCAUCACAAGUGGCGUUAAA [theeternabot_exclusion_KL_Theo_A_28] | 136 nM | 114 nM | 129 nM | 138 nM | 118 nM

Sequence | apparent KD of K4 kissing-loop reporter (input ligand: FMN 200 uM) | apparent KD of K4 kissing-loop reporter (input ligand: arginine 13.2 mM) | apparent KD of K4 kissing-loop reporter (input ligand: none) | apparent KD of K4 kissing-loop reporter [1] | apparent KD of K4 kissing-loop reporter [2]
GAUUGGCGGACGGCCGCCACUCGGACGAGUCACAGUGAUGUUGUGGUUUGCCAGUCGACUUCAUCGAGGACCGGGUUUGUCGGGC [Exclusion Tryptophan B GF 21] | 592 nM | 407 nM | 497 nM | 405 nM | 349 nM
GAUUUAGAGGCGGCCGCCACUAGUGAUGUUAGUGAUGUUUGAUAGGGAAUAUAUCUGCGAGUAGAUAGGACCGGGCCAGAUGGAG [eccvbmullin] | 192 nM | 128 nM | 150 nM | 168 nM | 151 nM
GCAAACCUCAGUGAUGUUGAGAAAUCGGAAGGAGCGCGUGAAAACGCAGGUAGGUCGCCGACACAUGAAGUAUCUUCGUGUUUGC [Arginine A K4 22] | 276 nM | 272 nM | 316 nM | 328 nM | 243 nM
GCAACAUUGGUAGGAUAUCAUUCUGAGUGAUGUUCAGGGUUCAGCUAACGAAAGUUAGUUGUACCAUGAGAAGGGCUAAUGUUGC [Omei KL FMN B SS A v5] | 425 nM | 711 nM | 967 nM | 820 nM | 989 nM
GCAGACACGCAGUGAUGUUGCGAAACGGAAGGAGCGCGUGAAAACGCAGGUAGGUCGCCGACACAUAAAUUAUAAUUUUGUUUGC [Arginine A K4 14] | 253 nM | 214 nM | 246 nM | 237 nM | 205 nM
GCAGUGAUGUUGCGGAUGUACAGUGGCGUGCGAGGACCGGUACGGCCGCCACUCGUACAGAGCAAGCUAAUACAUCGAUAGGUGA [whbob_SS_Tryp_A_m4] | 436 nM | 223 nM | 207 nM | 382 nM | 240 nM
GCCAUCUACUAAGGAUAUUAAGUCAAUAUUUGUGGUGCCAUCUGUCGUUCAGGGCAGUGAUGUUGCUAAGAAGGUAGUCUGUCGG [theeternabot_exclusion_KL_FMN_B_39] | 757 nM | 441 nM | 636 nM | 593 nM | 407 nM
GCCCGGUGAAUCCGCCAAGAUAGACACCGUCGAGGACCGGUACGGCCGCCACUCGAGUACGAGUGAUGUUCGUACGCGGUGUCGA [Onedzate] | 606 nM | 728 nM | 657 nM | 431 nM | 189 nM
GCCGUACGCAUGGAUACCAGCUAGACCGAGUGAUGUUCAGGUCUGAAUGCCGGUAAUAAGAGCCCUUGGCAGCCAUGCGUACGGC | 361 nM | 262 nM | 358 nM | 335 nM | 307 nM
GCCGUAGAUGGAAGGAGCGUGGUCUAGAAGCACAAGUGAUGUUUGUGGUAACCUUCUGACCCACAGGUAGGUCGCCAUCUACGGC | 88.4 nM | 78.4 nM | 85.7 nM | 68.1 nM | 82.1 nM
GCCGUAGAUUGAAGGAGCGGGCCGUAGUGAUGUUACGCCAAGUUGUCUUUUAUUGAUGUGGCCCAGGUAGGUCGCAAUCUACGGC | 300 nM | 287 nM | 311 nM | 217 nM | 273 nM
GCCGUAGAUUGAAGGAGCGUUCUUACUGAUUACGGCAGCCGGAAGUGAUGUUUCCAGGUGGAACAGGUAGGUCGCAAUCUACGGC | 104 nM | 87.2 nM | 96 nM | 99.8 nM | 92 nM
GCCGUCCGGUCGCAAGACCGGACAGCCGAUACCAGCGCGAAGGCGCGCCCUUGGCAGCGGCACCGAGUGAUGUUCGGUCAGGCGG [#2 Same State - Theophylline A Attempt #2 (HarryS)] | 179 nM | 148 nM | 173 nM | 128 nM | 166 nM
GCCUAGCAGGGAAGGAGCGCCAGGAGAAGAAAUGGAGAGAGUUGAGUGAUGUUCAAAUGGUGGCAGGUAGGUCGCCCUGCUAGGC [KL-SSArg B12] | 388 nM | 298 nM | 583 nM | 761 nM | 274 nM
GCCUGGGCCCGAAGGAGCGCCGUGACAGGUUACUGCAUUGAGCAGUGAUGUUGCUCAAUCUGGCAGGUAGGUCGCGGGCCCAGGC | 120 nM | 100 nM | 102 nM | 108 nM | 93.1 nM
GCGAAAAGCAAAACGAGUGAUGUUCGAAAACGAGGACCGGUACGGCCGCCACUCGAAAACGUCUGCGUGGGAAACUAUGUAGAUG [SS Tryptophan A - 1] | 511 nM | 569 nM | 698 nM | 590 nM | 302 nM
GCGCGCGGCGGAGGAUAUAGCCGGUGAUCCGAGAAAGUGAGUGAUGUUUACGGAGUUGAGGAUAUGUUAGAAGGCCGCCGCGCGC [abcdefghijklmnopqrstuvwx] | 339 nM | 751 nM | 1000 nM | 792 nM | 789 nM
GCGCGGGUCAGUGAUGUUGACCCUCGGAGACGAGGACCGGUACGGCCGCCACUCGUCCGCGCAGCUGAGGCAAAAGCCUCGGCAA [Omei KL Tryp A SS B v5] | 155 nM | 142 nM | 140 nM | 131 nM | 103 nM
GCGUUACUGAAAGGAUAUGAUCAACAUAGUGGUCAGUGAUGUUGGCAGGCCUCGUGGCGAGGUAGAUCAGAAGGUUCAUUACGAC [theeternabot_sameState_KL_FMN_B_11] | 415 nM | 484 nM | 553 nM | 502 nM | 482 nM
GCUACUGCUGAAGGAUAUAUCAAUAGAGUGAUGUUCUAUGUCGGUAGCCCGAAAGGGCUACCGACGAUAGAAGGUCAGCAGUAGC | 113 nM | 1020 nM | 723 nM | 1070 nM | 983 nM
GCUAGGCAUGCAGGAUAUCGCCGAGUGAUGUUCGGUAGGCCGCUUUCUUUCUUUCUUUGCGGCCAGCGAGAAGGGCAUGCCUAGC | 139 nM | 112 nM | 108 nM | 68 nM | 118 nM
